T1: Alcaligenes faecalis Penicillin G acylase, wild type (α subunit SEQ ID NO:27, β subunit SEQ ID NO:32) (Alcaligenes faecalis, UniProt O34142)
T1 construct: alpha 202 aa, beta 551 aa; likely recombinant, E. coli host
T1 sequence (O34142 27-228): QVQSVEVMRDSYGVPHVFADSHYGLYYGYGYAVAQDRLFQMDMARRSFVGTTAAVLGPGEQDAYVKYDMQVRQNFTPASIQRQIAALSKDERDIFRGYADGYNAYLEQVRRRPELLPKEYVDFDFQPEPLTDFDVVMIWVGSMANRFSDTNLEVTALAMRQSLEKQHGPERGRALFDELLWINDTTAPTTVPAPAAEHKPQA
T1 sequence (O34142 266-816): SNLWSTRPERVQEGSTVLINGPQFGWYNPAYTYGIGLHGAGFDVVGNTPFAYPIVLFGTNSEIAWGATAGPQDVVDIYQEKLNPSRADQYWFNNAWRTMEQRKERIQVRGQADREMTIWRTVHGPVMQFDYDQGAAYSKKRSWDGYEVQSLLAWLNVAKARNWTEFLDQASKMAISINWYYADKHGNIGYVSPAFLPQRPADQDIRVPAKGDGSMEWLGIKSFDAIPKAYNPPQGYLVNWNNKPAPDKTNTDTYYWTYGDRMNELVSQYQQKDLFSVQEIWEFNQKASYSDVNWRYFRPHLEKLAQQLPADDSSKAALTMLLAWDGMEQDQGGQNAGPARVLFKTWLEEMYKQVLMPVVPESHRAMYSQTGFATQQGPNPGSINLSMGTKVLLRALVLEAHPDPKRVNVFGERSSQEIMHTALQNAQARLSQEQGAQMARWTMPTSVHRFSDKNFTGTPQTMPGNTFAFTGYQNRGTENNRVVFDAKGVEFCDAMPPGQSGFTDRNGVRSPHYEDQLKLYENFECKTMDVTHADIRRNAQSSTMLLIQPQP


How the values were obtained:
[1] = molecular target: T1, Alcaligenes faecalis Penicillin G acylase, wild type (α subunit SEQ ID NO:27, β subunit SEQ ID NO:32); test: Deacylation kinetics and phenylacetic acid product inhibition, wild type PenG acylase; type: biochemical; details: Table 8, wt AF; NIPAB, 0.1 M NaH2PO4, pH 7.5, 25° C.
Method: In order to determine enzymatic activity the acylases were incubated with substrate at room temperature in buffered solution. In case β-lactamase impurity was expected to be present in the enzyme preparations, 1.0 mM -lactamase inhibitor 6-bromo-penicillanic acid was added to the assay. The reactions were stopped by adding an excess PMSF. For some mutants which were less sensitive to PMSF inhibition, the reactions were stopped by adding 0.5 M HCl or 0.5 M acetic acid until the pH was between 3 and 4. When reactions were subsequently analysed by HPLC, the reactions were stopped by dilution with the correponding elution solvent (see table 1). […]
(§1) The composition of the reaction mixtures was determined by high-performanceliquid chromatography (HPLC)(table 1). Concentrations were determined by using standards of known concentration.
In a continuous assay Penicillin G acylase was assayed spectro-fotometrically with the chromogenic substrate NIPAB [6-nitro-3-phenylacetamido-benzoic acid]. The liberation of 3-amino-6-nitrobenzoic acid was monitored by measuring the extinction at 405 nm in a Kontron 610 kinetic spectrofotometer. […]
Initial rate measurements were performed with excess substrate over the enzyme. Catalytic parameters were derived from least-squares fitting of the measured initial rates plotted for various substrate concentrations according to the Michaelis-Menten equation. […]

[2] = substrate: CC1=C(C(=O)O)N2C(=O)[C@@H](NC(=O)Cc3ccccc3)[C@H]2SC1; test: Deacylation kinetics, mutant A:F147Y; type: biochemical, Alcaligenes faecalis; details: other: A:F147Y; 20 mM NaH2PO4, pH 7.5, 37° C.; pH 7.5; 37.0 °C
Method: (§2) In case β-lactamase impurity was expected to be present in the enzyme preparations, 1.0 mM -lactamase inhibitor 6-bromo-penicillanic acid was added to the assay. The reactions were stopped by adding an excess PMSF. For some mutants which were less sensitive to PMSF inhibition, the reactions were stopped by adding 0.5 M HCl or 0.5 M acetic acid until the pH was between 3 and 4. When reactions were subsequently analysed by HPLC, the reactions were stopped by dilution with the correponding elution solvent (see table 1). In addition substrates were incubated under assay conditions in absence of enzyme. If necessary enzyme assays were corrected for non-enzymatic hydrolysis
as §1
(§3) In a continuous assay Penicillin G acylase was assayed spectro-fotometrically with the chromogenic substrate NIPAB [6-nitro-3-phenylacetamido-benzoic acid]. The liberation of 3-amino-6-nitrobenzoic acid was monitored by measuring the extinction at 405 nm in a Kontron 610 kinetic spectrofotometer. […] Initial rate measurements were performed with varying concentration of NIPAB.
(§4) The kinetics of enzymatic hydrolysis of PenG, PenV, CefG were also studied by alkaline titration (0, OlM KOH), using a Radiometer pH-stat. All experiments were carried out in a buffer free medium.
(§5) Initial rate measurements were performed with excess substrate over the enzyme. Catalytic parameters were derived from least-squares fitting of the measured initial rates plotted for various substrate concentrations according to the Michaelis-Menten equation.

[3] = substrate: CC1(C)S[C@@H]2[C@H](NC(=O)COc3ccccc3)C(=O)N2[C@H]1C(=O)O; test: Deacylation kinetics, mutant A:F147Y; type: biochemical, Alcaligenes faecalis; details: other: A:F147Y; 40 mM NaH2PO4, pH 7.5, 37° C.; pH 7.5; 37.0 °C
Method: as §2, §1, §3, §4, §5

[4] = substrate: CC1(C)S[C@@H]2[C@H](NC(=O)[C@H](N)c3ccccc3)C(=O)N2[C@H]1C(=O)O; test: Deacylation kinetics, mutant A:F147Y; type: biochemical, Alcaligenes faecalis; details: other: A:F147Y; 20 mM NaH2PO4, pH 7.0, 37° C.; pH 7.0; 37.0 °C
Method: as §2, §1, §3, §4, §5

[5] = substrate: CC1(C)S[C@@H]2[C@H](NC(=O)[C@H](N)c3ccc(O)cc3)C(=O)N2[C@H]1C(=O)O; test: Deacylation kinetics, mutant A:F147Y; type: biochemical, Alcaligenes faecalis; details: other: A:F147Y; 20 mM NaH2PO4, pH 7.0, 37° C.; pH 7.0; 37.0 °C
Method: as §2, §1, §3, §4, §5

[6] = substrate: NC(=O)[C@H](N)c1ccccc1; test: Deacylation kinetics, mutant A:F147Y; type: biochemical, Alcaligenes faecalis; details: other: A:F147Y; 20 mM NaH2PO4, pH 7.0, 37° C.; pH 7.0; 37.0 °C
Method: as §2, §1, §3, §4, §5

[7] = substrate: O=C(Cc1ccccc1)Nc1ccc([N+](=O)[O-])c(C(=O)O)c1; test: Deacylation kinetics, mutant A:F147Y; type: biochemical, Alcaligenes faecalis; details: other: A:F147Y; 0.1M NaH2PO4, pH 7.5, 25° C.; pH 7.5; 25.0 °C
Method: as §2, §1, §3, §4, §5

[8] = substrate: CC1(C)S[C@@H]2[C@H](NC(=O)Cc3ccccc3)C(=O)N2[C@H]1C(=O)O; test: Deacylation kinetics, mutant A:F147Y; type: biochemical, Alcaligenes faecalis; details: other: A:F147Y; 40 mM NaH2PO4, pH 7.5, 37° C.; pH 7.5; 37.0 °C
Method: as §2, §1, §3, §4, §5

Row | Molecule | Vmax [1] | Km [2] | Vmax [2] | Km [3] | Vmax [3] | Km [4] | Vmax [4] | Km [5] | Vmax [5] | Km [6] | Vmax [6] | Km [7] | Vmax [7] | Km [8] | Vmax [8]
1 | O=C(Cc1ccccc1)Nc1ccc([N+](=O)[O-])c(C(=O)O)c1 [NIPAB, 6-nitro-3-phenylacetamido-benzoic acid] | 37.0 U/mg |  |  |  |  |  |  |  |  |  |  |  |  |  | 
2 | Alcaligenes faecalis Penicillin G acylase mutant A:F147Y (Alcaligenes faecalis; F173Y) (protein, alpha 202 aa, beta 551 aa; recombinant, E. coli host) chain 1: QVQSVEVMRDSYGVPHVFADSHYGLYYGYGYAVAQDRLFQMDMARRSFVGTTAAVLGPGEQDAYVKYDMQVRQNFTPASIQRQIAALSKDERDIFRGYADGYNAYLEQVRRRPELLPKEYVDFDFQPEPLTDFDVVMIWVGSMANRYSDTNLEVTALAMRQSLEKQHGPERGRALFDELLWINDTTAPTTVPAPAAEHKPQA chain 2: SNLWSTRPERVQEGSTVLINGPQFGWYNPAYTYGIGLHGAGFDVVGNTPFAYPIVLFGTNSEIAWGATAGPQDVVDIYQEKLNPSRADQYWFNNAWRTMEQRKERIQVRGQADREMTIWRTVHGPVMQFDYDQGAAYSKKRSWDGYEVQSLLAWLNVAKARNWTEFLDQASKMAISINWYYADKHGNIGYVSPAFLPQRPADQDIRVPAKGDGSMEWLGIKSFDAIPKAYNPPQGYLVNWNNKPAPDKTNTDTYYWTYGDRMNELVSQYQQKDLFSVQEIWEFNQKASYSDVNWRYFRPHLEKLAQQLPADDSSKAALTMLLAWDGMEQDQGGQNAGPARVLFKTWLEEMYKQVLMPVVPESHRAMYSQTGFATQQGPNPGSINLSMGTKVLLRALVLEAHPDPKRVNVFGERSSQEIMHTALQNAQARLSQEQGAQMARWTMPTSVHRFSDKNFTGTPQTMPGNTFAFTGYQNRGTENNRVVFDAKGVEFCDAMPPGQSGFTDRNGVRSPHYEDQLKLYENFECKTMDVTHADIRRNAQSSTMLLIQPQP |  | 6 µM | 4.0 U/mg | 51 µM | 0.8 U/mg | 2600 µM | 13.6 U/mg | 19000 µM | 0.1 U/mg | 1700 µM | 32.7 U/mg | 5 µM | 18.0 U/mg | 4 µM | 5.9 U/mg
